# Reference: IntAct's records for PubMed 23435383
# B1: DNA mismatch repair protein MLH1 (Saccharomyces cerevisiae), P38920 (parent)
# chain: MSLRIKALDASVVNKIAAGEIIISPVNALKEMMENSIDANATMIDILVKEGGIKVLQITDNGSGINKADLPILCERFTTSKLQKFEDLSQIQTYGFRGEALASISHVARVTVTTKVKEDRCAWRVSYAEGKMLESPKPVAGKDGTTILVEDLFFNIPSRLRALRSHNDEYSKILDVVGRYAIHSKDIGFSCKKFGDSNYSLSVKPSYTVQDRIRTVFNKSVASNLITFHISKVEDLNLESVDGKVCNLNFISKKSISPIFFINNRLVTCDLLRRALNSVYSNYLPKGNRPFIYLGIVIDPAAVDVNVHPTKREVRFLSQDEIIEKIANQLHAELSAIDTSRTFKASSISTNKPESLIPFNDTIESDRNRKSLRQAQVVENSYTTANSQLRKAKRQENKLVRIDASQAKITSFLSSSQQFNFEGSSTKRQLSEPKVTNVSHSQEAEKLTLNESEQPRDANTINDNDLKDQPKKKQKLGDYKVPSIADDEKNALPISKDGYIRVPKERVNVNLTSIKKLREKVDDSIHRELTDIFANLNYVGVVDEERRLAAIQHDLKLFLIDYGSVCYELFYQIGLTDFANFGKINLQSTNVSDDIVLYNLLSEFDELNDDASKEKIISKIWDMSSMLNEYYSIELVNDGLDNDLKSVKLKSLPLLLKGYIPSLVKLPFFIYRLGKEVDWEDEQECLDGILREIALLYIPDMVPKVDTSDASLSEDEKAQFINRKEHISSLLEHVLFPCIKRRFLAPRHILKDVVEIANLPDLYKVFERC
# partner: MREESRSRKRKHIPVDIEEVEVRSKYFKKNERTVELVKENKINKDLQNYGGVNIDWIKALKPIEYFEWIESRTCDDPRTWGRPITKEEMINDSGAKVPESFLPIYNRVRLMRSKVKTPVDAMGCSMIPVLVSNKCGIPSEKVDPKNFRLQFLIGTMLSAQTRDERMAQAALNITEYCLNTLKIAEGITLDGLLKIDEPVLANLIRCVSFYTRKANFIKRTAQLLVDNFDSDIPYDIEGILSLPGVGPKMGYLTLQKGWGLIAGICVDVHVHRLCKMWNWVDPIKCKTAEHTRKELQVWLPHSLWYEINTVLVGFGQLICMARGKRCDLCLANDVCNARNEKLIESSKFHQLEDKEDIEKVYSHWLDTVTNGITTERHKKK
# B2: DNA mismatch repair protein MLH1 (Saccharomyces cerevisiae), P38920 (parent)
# chain: B1 chain
# partner: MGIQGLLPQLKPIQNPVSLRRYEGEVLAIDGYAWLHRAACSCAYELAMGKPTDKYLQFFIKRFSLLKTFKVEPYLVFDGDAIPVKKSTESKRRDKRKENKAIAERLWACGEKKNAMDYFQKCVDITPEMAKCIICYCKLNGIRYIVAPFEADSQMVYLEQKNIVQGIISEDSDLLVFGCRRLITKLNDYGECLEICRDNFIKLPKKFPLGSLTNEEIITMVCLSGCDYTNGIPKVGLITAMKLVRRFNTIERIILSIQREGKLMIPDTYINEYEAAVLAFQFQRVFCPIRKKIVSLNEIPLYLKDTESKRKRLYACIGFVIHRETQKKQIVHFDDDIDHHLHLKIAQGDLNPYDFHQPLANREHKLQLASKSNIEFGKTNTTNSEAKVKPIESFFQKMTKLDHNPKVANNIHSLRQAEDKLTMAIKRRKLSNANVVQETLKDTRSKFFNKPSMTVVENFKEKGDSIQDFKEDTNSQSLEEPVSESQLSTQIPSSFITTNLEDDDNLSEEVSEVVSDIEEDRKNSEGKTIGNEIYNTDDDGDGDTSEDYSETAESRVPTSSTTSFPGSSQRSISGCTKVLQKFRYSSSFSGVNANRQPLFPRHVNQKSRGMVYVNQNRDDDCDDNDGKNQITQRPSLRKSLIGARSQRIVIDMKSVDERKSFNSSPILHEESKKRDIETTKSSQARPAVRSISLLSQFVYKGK
# B3: Endonuclease III homolog 2 (Saccharomyces cerevisiae), Q08214 (parent)
# chain: B1 partner
# partner: B1 chain
# Variants of: B1
# Conditions: with nth2_yeast NTG2, Q08214
row,Variant,effect of a mutation on the interaction
1,L511A,disrupting interaction strength

# Variants of: B2
# Conditions: with exo1_yeast EXO1, P39875
row,Variant,effect of a mutation on the interaction
1,L511A,disrupting interaction strength

# Variants of: B3
# Conditions: with mlh1_yeast MLH1, P38920
row,Variant,effect of a mutation on the interaction
1,MREESRSRKRKHIPVDIEEVEVRSKFFKKNERTVELVKENKINKDLQNYGGVNIDWIKALKPIEYFEWIESRTCDDPRTWGRPITKEEMINDSGAKVPESFLPIYNRVRLMRSKVKTPVDAMGCSMIPVLVSNKCGIPSEKVDPKNFRLQFLIGTMLSAQTRDERMAQAALNITEYCLNTLKIAEGITLDGLLKIDEPVLANLIRCVSFYTRKANFIKRTAQLLVDNFDSDIPYDIEGILSLPGVGPKMGYLTLQKGWGLIAGICVDVHVHRLCKMWNWVDPIKCKTAEHTRKELQVWLPHSLWYEINTVLVGFGQLICMARGKRCDLCLANDVCNARNEKLIESSKFHQLEDKEDIEKVYSHWLDTVTNGITTERHKKK [Y26F],decreasing interaction strength
2,MREESRSRKRKHIPVDIEEVEVRSKYAKKNERTVELVKENKINKDLQNYGGVNIDWIKALKPIEYFEWIESRTCDDPRTWGRPITKEEMINDSGAKVPESFLPIYNRVRLMRSKVKTPVDAMGCSMIPVLVSNKCGIPSEKVDPKNFRLQFLIGTMLSAQTRDERMAQAALNITEYCLNTLKIAEGITLDGLLKIDEPVLANLIRCVSFYTRKANFIKRTAQLLVDNFDSDIPYDIEGILSLPGVGPKMGYLTLQKGWGLIAGICVDVHVHRLCKMWNWVDPIKCKTAEHTRKELQVWLPHSLWYEINTVLVGFGQLICMARGKRCDLCLANDVCNARNEKLIESSKFHQLEDKEDIEKVYSHWLDTVTNGITTERHKKK [F27A],disrupting interaction strength
3,MREESRSRKRKHIPVDIEEVEVRSKYYKKNERTVELVKENKINKDLQNYGGVNIDWIKALKPIEYFEWIESRTCDDPRTWGRPITKEEMINDSGAKVPESFLPIYNRVRLMRSKVKTPVDAMGCSMIPVLVSNKCGIPSEKVDPKNFRLQFLIGTMLSAQTRDERMAQAALNITEYCLNTLKIAEGITLDGLLKIDEPVLANLIRCVSFYTRKANFIKRTAQLLVDNFDSDIPYDIEGILSLPGVGPKMGYLTLQKGWGLIAGICVDVHVHRLCKMWNWVDPIKCKTAEHTRKELQVWLPHSLWYEINTVLVGFGQLICMARGKRCDLCLANDVCNARNEKLIESSKFHQLEDKEDIEKVYSHWLDTVTNGITTERHKKK [F27Y],disrupting interaction strength
